Experiment [1] deals with G-actin, rabbit skeletal muscle (rabbit) (UniProt P68135).
Experiment [2] has the same target. Put plainly: association kinetics by inactivation of etheno-ATP exchange.
The target is the same in experiment [3]. Put plainly: dissociation kinetics by etheno-ATP fluorescence decay.
Experiment [4] has the same target. Kind of experiment: other fluorescence titration.

“And” between values parts separate entries of the source, which are not always exact repeats. Identical values can stand only once. Like-named read-outs stand apart in the source and are kept apart here.

Chain of 14NT, 14-kD fragment of human plasma gelsolin containing the NH2 terminal (domain or fragment) (P06396 28-782): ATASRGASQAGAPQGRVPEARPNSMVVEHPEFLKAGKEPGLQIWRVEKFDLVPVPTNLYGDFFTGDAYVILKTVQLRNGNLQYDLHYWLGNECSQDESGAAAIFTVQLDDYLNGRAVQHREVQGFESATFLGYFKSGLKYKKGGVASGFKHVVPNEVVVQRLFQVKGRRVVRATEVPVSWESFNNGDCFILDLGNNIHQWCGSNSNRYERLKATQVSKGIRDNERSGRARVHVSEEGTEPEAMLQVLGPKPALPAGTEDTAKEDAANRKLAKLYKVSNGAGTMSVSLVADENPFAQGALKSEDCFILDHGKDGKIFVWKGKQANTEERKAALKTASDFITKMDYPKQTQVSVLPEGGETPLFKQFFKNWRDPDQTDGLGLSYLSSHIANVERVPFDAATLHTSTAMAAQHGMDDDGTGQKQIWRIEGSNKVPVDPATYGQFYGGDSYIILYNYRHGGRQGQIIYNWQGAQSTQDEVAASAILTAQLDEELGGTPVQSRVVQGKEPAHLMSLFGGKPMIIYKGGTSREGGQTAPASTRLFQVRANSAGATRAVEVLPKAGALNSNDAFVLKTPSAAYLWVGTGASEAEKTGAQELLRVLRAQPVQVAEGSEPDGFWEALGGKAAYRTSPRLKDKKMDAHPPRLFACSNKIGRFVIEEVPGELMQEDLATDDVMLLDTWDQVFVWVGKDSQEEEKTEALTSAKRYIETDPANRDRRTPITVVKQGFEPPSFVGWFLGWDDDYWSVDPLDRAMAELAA
Chain of 41CT, 41-kD COOH-terminal half of human plasma gelsolin (domain or fragment) (P06396 28-782): as above

Consider “14NT, 14-kD fragment of human plasma gelsolin containing the NH2 terminal (domain or fragment)”, for which, in experiment [1], the Ka is 2.2e+11 M⁻¹ and the equilibrium dissociation constant (Kd) (as a rule, the constant that tells how readily two partners part at equilibrium) lay within 0.004 to 0.005 nM. Besides, the kon (usually a measure of how fast the partners come together) in experiment [2] stood at 299000 M⁻¹ s⁻¹. In addition, in experiment [3], the koff (in general, the first-order rate constant of dissociation) is 1.35e-06 s⁻¹ and the t1/2 of the complex was 143 h. In addition, in experiment [4], the half-maximal saturation was 1 nM and 2 nM; the koff came to 0.0003 s⁻¹; the stoichiometry N (in general, the number of molecules, sites or subunits per partner or assembly) was determined as 1.

Regarding “41CT, 41-kD COOH-terminal half of human plasma gelsolin (domain or fragment)”, in experiment [4], the Kd was determined as 25 nM and the stoichiometry N was 1.

(Values after article PMC2115046.)
